One substance from article PMC7311918 can be followed below.

In this assay the target is SARS-CoV-2 S 2P trimer (S ectodomain, residues 16-1206) (SARS-CoV-2) (UniProt P0DTC2). In words: SEC-MALS.

Take “SARS-CoV-2 S 2P trimer (S ectodomain, residues 16-1206) (from UniProt P0DTC2 16-1206) (natural protein)”: the stoichiometry N – broadly, a count of units in the complex or per binding partner – was 3.
